Substrate in this data set: CCCCCCCCCCCCCCCC(=O)Oc1ccc([N+](=O)[O-])cc1
Kind of data set: purified protein. As to conditions: free enzyme, 50 mM Tris pH 9.0, 60 °C, 10-60 mM substrate, Triton X-100 and gum acacia in assay buffer. The format is biochemical, Thermomyces lanuginosus.

A word on the Km: it is the substrate concentration at which the rate is half of its maximum. In general, Vmax refers to the rate approached at saturating substrate.

B1: Thermomyces lanuginosus lipase (Thermomyces lanuginosus) (protein)
chain: EVSQDLFNQFNLFAQYSAAAYCGKNNDAPAGTNITCTGNACPEVEKADATFLYSFEDSGVGDVTGFLALDNTNKLIVLSFRGSRSIENWIGNLNFDLKEINDICSGCRGHDGFTSSWRSVADTLRQKVEDAVREHPDYRVVFTGHSLGGALATVAGADLRGNGYDIDVFSYGAPRVGNRAFAEFLTVQTGGTLYRITHTNDIVPRLPPREFGYSHSSPEYWIKSGTLVPVTRNDIVKIEGIDATGGNNQPNIPDIPAHLWYFGLIGTCL
notes: free enzyme
On to B1, for which the Km amounted to 3.1 mM and the maximum rate (Vmax) was determined as 20.1 µmol/min/mg.

The values are drawn from publication PMC3772012, “Enzyme Immobilisation on Amino-Functionalised Multi-Walled Carbon Nanotubes: Structural and Biocatalytic Characterisation” (PLoS ONE, 2013).
